Measured values: PMC3025356, “Mechanism of the Ca^2+-Dependent Interaction between S100A4 and Tail Fragments of Nonmuscle Myosin Heavy Chain IIA” (Journal of Molecular Biology, 2011)
Entries after “also recorded” stand apart in the source; their conditions may differ.

Assays:
[1] = molecular target: T1, S100A4 (Homo sapiens, UniProt P26447); assay: Quin-2 fluorescence, Ca^2+ dissociation from S100A4 in the presence of target peptides; format: binding
T1 construct: We used full-length S100A4 for this analysis; made in house; host or cells: Escherichia coli BL21(DE3)
T1 sequence (P26447 whole entry): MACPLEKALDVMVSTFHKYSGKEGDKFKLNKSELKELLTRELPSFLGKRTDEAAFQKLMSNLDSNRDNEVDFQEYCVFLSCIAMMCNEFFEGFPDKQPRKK
Description: Ca^2+ dissociation measurements for wild-type S100A4, using Quin-2 as described above, were repeated as a control for the effect of target peptides on this process. On mixing 10 μM S100A4 in the presence of Ca^2+ with 100 μM Quin-2, the observed profile was fitted to a single exponential with kobs = 17 s^− 1 (Fig. 5a; cf. k− 1 in Scheme 1).
Fig. 5 Dissociation of Ca^2+ from S100A4 in the absence and in the presence of target peptides monitored using Quin-2 fluorescence. (a) Mixed with 100 μM Quin-2 was 10 μM S100A4 + 50 μM Ca^2+ (stopped-flow reaction chamber concentrations). A superposed fit to a single exponential yields kobs = 17 s^− 1. […] (d) As in (a), but with 2.5 μM M200 premixed with 5 μM S100A4. A biphasic exponential fit yielded rate constants of 13 s^− 1 (A = 26%) and 0.30 s^− 1 (A = 74%). […] Experiments were carried out in either 20 mM NaCl, 20 mM Tris, 1 mM DTT, and 100 μM Ca^2+ at pH 7.5 and 20 °C (a and b; cf. Malashkevich et al.[17]), or 100 mM NaCl, 10 mM Hepes, and 100 μM Ca^2+ at pH 7.5 and 20 °C (c and d). […] Rate constants were unaffected by the inclusion of 1 mM Mg^2+.
Stopped-flow measurements were carried out using an SX18-MV apparatus (Applied Photophysics Ltd., Leatherhead, UK) with a dead time of 1.5 ms.[40] Records were generally captured on a logarithmic time base. Absorption (turbidity) measurements were usually recorded using a 10-mm pathlength, while fluorescence was recorded with a 2-mm pathlength for excitation and emission. The stated concentrations of components refer to the reaction chamber after mixing, unless otherwise indicated. Tyrosine fluorescence was excited at 280 nm, and the emission was collected through a UG11 bandpass filter plus a 305-nm longpass filter.[18] Fluorescein fluorescence was excited at 480 nm, and the emission was detected through a 515-nm longpass filter. Quin-2 fluorescence was measured by excitation at 336 nm, and emission was collected with a 455-nm longpass filter. For simultaneous recording of light scatter, a second channel was monitored through a UG11 filter. Rate constants were obtained by fitting to single-exponential or double-exponential functions using Kaleidagraph (Synergy Software) or Applied Photophysics Pro-Data software. Modeling of kinetic schemes was performed using Berkeley Madonna software.

[2] = CD / helical stability of M111; format: physicochemical; settings: 0.05 mM protein
Description: CD spectra were measured on a JASCO J-715 spectropolarimeter equipped with a JASCO PTC-348WI temperature-controlled unit at 0.05 mM protein solutions using a 1-mm pathlength microcuvette.

[3] = increasing concentrations of M111

B1: M111: His-tagged human NM-MHC IIA residues 1850-1960, V1913I substitution (protein, UniProt P35579 1850-1960, looked up, variant V1913I)
chain: QVDDERRNAEQYKDQADKASTRLKQLKRQLEEAEEEAQRANASRRKLQRELEDATETADAMNREISSLKNKLRRGDLPFVVPRRMARKGAGDGSDEEVDGKADGAEAKPAE
modifications: His tag
notes: His-tagged human NM-MHC IIA residues 1850-1960, V1913I substitution
For B1, the fast-phase amplitude ([1]; 5 μM M111, 10 μM S100A4) was 6%, the slow-phase amplitude ([1]; 5 μM M111, 10 μM S100A4) was 94% and the slow-phase rate constant ([1]; 5 μM M111, 10 μM S100A4, 50 μM Ca^2+, 100 μM Quin-2) was 0.36 s⁻¹. The fast-phase rate constant ([1]; 5 μM M111, 10 μM S100A4, 50 μM Ca^2+, 100 μM Quin-2, residual unbound S100A4) was 21 s⁻¹, the “slower release of Ca^2+” value ([1]; in presence of coiled-coil fragments) was 0.3–0.5 s^− 1 and the fast-phase rate constant [1, 3] was 20 s^− 1. The slow-phase rate constant [1, 3] was 0.4 s^− 1, the “Ca^2+ dissociation rate constant from complex (k− 3), comparison” value ([1]; peptide–S100A4–Ca^2+ complex) was 0.3 s^− 1 and the helical structure stability [2] was “high helical content detected for the fragment by CD below 20 °C; also recorded: only marginally stable at 20 °C”.
